In one test the target is p97. The following applies: reported for p47/NSFL1C; cited from earlier work. From the text: Through in silico searches for candidate regulators of p97 function, we came across FAM104A, a virtually uncharacterized protein detected in unbiased large-scale proteomic profiles of p97 interaction networks along with known p97 cofactors (Supplementary Fig. 1a)[20],[21], but whose precise connection to p97 has not been studied. In humans, FAM104A encodes a relatively small protein of 186 amino acids that contains no annotated domains but is conserved across vertebrates (Supplementary Fig. 1b) and is broadly expressed, albeit at low levels, in human tissues. For reasons described in the follo ...

For test [1], the system named is p97 with UFD1-NPL4, p47 or FAF1. Description: In vitro binding with p97 cofactors (GST, StrepTactin, p47, p97 or FLAG pulldown). More on the design: species or system human. The following applies: high/increasing concentrations. Here is the method: All in vitro binding experiments were performed in EBC or RIPA buffer as indicated. Recombinant Biotin-tagged K48-linked poly-ubiquitin chains (2−7) and K48-linked poly-ubiquitin chains (2−16) were purchased from R&D Systems and Enzo Life Science, respectively. Recombinant proteins were incubated with Strep-Tactin Sepharose (IBA), Glutathione agarose (Gold Biotechnology) or […] Fab-trap agarose (ChromoTek) overnight on an end-over-end rotator at 4 °C, washed six times with EBC or RIPA buffer, and resuspended in 2×Laemmli sample buffer. For p97, VCF1 or p47 pulldowns, antibodies (0.5 µg/sample) were coupled to agarose beads, incubated with recombinant proteins or cell lysates and washed with the indicated buffer. To assess p97-UFD1-NPL4 binding to ubiquitylated proteins in total cell extracts, U2OS cells were lysed in EBC buffer supplemented with protease and phosphatase inhibitors, sonicated and incubated on ice for 10 min. Lysates were cleared by centrifugation for 10 min at 16,100 × g. Cell lysate (40 µg) was added to recombinant proteins in EBC buffer, incubated overnight on the rotator with […] Fab-trap agarose (ChromoTek), and beads were washed six times.

The test system of test [2] is GFP-VCF1 WT / N167A interactome, U2OS cells. Put plainly: GFP IP mass spectrometry, comparison of VCF1 WT and N167A interactomes (WT/N167A). Type of test: binding, human. Conditions: GFP-VCF1 WT / N167A IPs, partially denaturing RIPA buffer. How it is done:
U2OS (catalog no. HTB-96) cells were obtained from ATCC. HEK293-EBNA1-6E cells were a kind gift from Yves Durocher (National Research Council Canada, Montreal, Canada). All mammalian cell lines were cultured under standard conditions at 37 °C and 5% CO2 in DMEM (Thermo) supplemented with 10% FBS (v/v) and penicillin-streptomycin (Thermo). Recombination cloning-compatible U2OS cells were generated using the Flp-In T-Rex Core Kit (Thermo) according to the manufacturer’s instructions and maintained under selection using Blasticidin (Invivogen) and Zeocin (Thermo). To generate cell lines stably expressing GFP-VCF1, U2OS Flp-In T-Rex cells (Thermo) were co-transfected with GFP-VCF1 constructs and pOG44 (Thermo) plasmids, followed by selection with Hygromycin (Invitrogen). Single clones were carefully screened for uniform expression of ectopic GFP-VCF1 at low levels and maintained under selection with Blasticidin and Hygromycin. To induce GFP-VCF1 expression, cells were treated with Doxycycline (DOX) (0.5 µg/ml) for 16 h. U2OS cell lines stably expressing Ub(G76V)-GFP or Ub(G76V)-GFP-20AA were described previously. A U2OS cell line stably expressing Ub(G76V)-GFP-NES was generated under G418 (Invivogen) selection. Clones with low baseline GFP expression were visually screened for low basal GFP expression. […]

Test [3] relates to GFP-VCF1 WT interactome, U2OS cells. Put plainly: GFP IP mass spectrometry of VCF1-interacting proteins, partially denaturing RIPA buffer (+DOX/-DOX). Type of test: binding, human. Here is the method:
U2OS (catalog no. HTB-96) cells were obtained from ATCC. HEK293-EBNA1-6E cells were a kind gift from Yves Durocher (National Research Council Canada, Montreal, Canada). All mammalian cell lines were cultured under standard conditions at 37 °C and 5% CO2 in DMEM (Thermo) supplemented with 10% FBS (v/v) and penicillin-streptomycin (Thermo). Recombination cloning-compatible U2OS cells were generated using the Flp-In T-Rex Core Kit (Thermo) according to the manufacturer’s instructions and maintained under selection using Blasticidin (Invivogen) and Zeocin (Thermo). To generate cell lines stably expressing GFP-VCF1, U2OS Flp-In T-Rex cells (Thermo) were co-transfected with GFP-VCF1 constructs and pOG44 (Thermo) plasmids, followed by selection with Hygromycin (Invitrogen). Single clones were carefully screened for uniform expression of ectopic GFP-VCF1 at low levels and maintained under selection with Blasticidin and Hygromycin. To induce GFP-VCF1 expression, cells were treated with Doxycycline (DOX) (0.5 µg/ml) for 16 h. U2OS cell lines stably expressing Ub(G76V)-GFP or Ub(G76V)-GFP-20AA were described previously. A U2OS cell line stably expressing Ub(G76V)-GFP-NES was generated under G418 (Invivogen) selection. Clones with low baseline GFP expression were visually screened for low basal GFP expression. All cell lines used in this study were regularly tested negative for mycoplasma infection and were not authenticated.
Immunoblotting was performed as previously described. Immunoprecipitation (IP) of HA-tagged proteins was performed using Anti-HA Affinity matrix (Roche) under denaturing conditions, unless otherwise stated. GFP-trap and […] Fab-trap agarose (Chromotek) were used according to manufacturer’s instructions. Cell lysis was performed using RIPA buffer (140 mM NaCl; 10 mM Tris-HCl, pH 8.0; 0.1% sodium deoxycholate; 1% Triton X-100; 0.1% SDS; 1 mM EDTA; 0.5 mM EGTA) or EBC buffer (50 mM Tris, pH 7.5; 150 mM NaCl; 1 mM EDTA; 0.5% NP-40, 1 mM DTT). IPs were washed in non-denaturing buffer (50 mM Tris-HCl, pH 7.5; 150 mM NaCl; 0.5 mM EDTA). […]

Data on five molecules can be found in PMC10950897, “VCF1 is a p97/VCP cofactor promoting recognition of ubiquitylated p97-UFD1-NPL4 substrates” (Nature Communications, 2024).

B1: p47: p97 cofactor (protein)
chain: MAAERQEALREFVAVTGAEEDRARFFLESAGWDLQIALASFYEDGGDEDIVTISQATPSSVSRGTAPSDNRVTSFRDLIHDQDEDEEEEEGQRFYAGGSERSGQQIVGPPRKKSPNELVDDLFKGAKEHGAVAVERVTKSPGETSKPRPFAGGGYRLGAAPEEESAYVAGEKRQHSSQDVHVVLKLWKSGFSLDNGELRSYQDPSNAQFLESIRRGEVPAELRRLAHGGQVNLDMEDHRDEDFVKPKGAFKAFTGEGQKLGSTAPQVLSTSSPAQQAENEAKASSSILIDESEPTTNIQIRLADGGRLVQKFNHSHRISDIRLFIVDARPAMAATSFILMTTFPNKELADESQTLKEANLLNAVIVQRLT
modifications: left off: His6, end not stated, state not stated
notes: p97 cofactor
As for B1, the Kd on p97 was 200 to 500 nM. Moreover, the “displacement of p97-bound cofactors” value in test [1] is recorded as “did not lead to dissociation of VCF1 from p97”.

B2: LMNA (protein, UniProt P02545 1-661, looked up)
Prelamin-A/C: METPSQRRATRSGAQASSTPLSPTRITRLQEKEDLQELNDRLAVYIDRVRSLETENAGLRLRITESEEVVSREVSGIKAAYEAELGDARKTLDSVAKERARLQLELSKVREEFKELKARNTKKEGDLIAAQARLKDLEALLNSKEAALSTALSEKRTLEGELHDLRGQVAKLEAALGEAKKQLQDEMLRRVDAENRLQTMKEELDFQKNIYSEELRETKRRHETRLVEIDNGKQREFESRLADALQELRAQHEDQVEQYKKELEKTYSAKLDNARQSAERNSNLVGAAHEELQQSRIRIDSLSAQLSQLQKQLAAKEAKLRDLEDSLARERDTSRRLLAEKEREMAEMRARMQQQLDEYQELLDIKLALDMEIHAYRKLLEGEEERLRLSPSPTSQRSRGRASSHSSQTQGGGSVTKKRKLESTESRSSFSQHARTSGRVAVEEVDEEGKFVRLRNKSNEDQSMGNWQIKRQNGDDPLLTYRFPPKFTLKAGQVVTIWAAGAGATHSPPTDLVWKAQNTWGCGNSLRTALINSTGEEVAMRKLVRSVTVVEDDEDEDGDDLLHHHHGSHCSSSGDPAEYNLRSRTVLCGTCGQPADKASASGSGAQVGGPISSGSSASSVTVTRSYRSVGGSGGGSFGDNLVTRSYLLGNSSPRTQSPQNC
For B2, the “Relative protein level (log2) WT/MUT” value in test [2] came to 3.361 log2.

B3: Complement component 1 Q subcomponent-binding protein, mitochondrial (protein, UniProt Q07021 74-282, looked up)
Complement component 1 Q …: LHTDGDKAFVDFLSDEIKEERKIQKHKTLPKMSGGWELELNGTEAKLVRKVAGEKITVTFNINNSIPPTFDGEEEPSQGQKVEEQEPELTSTPNFVVEVIKNDDGKKALVLDCHYPEDEVGQEDEAESDIFSIREVSFQSTGESEWKDTNYTLNTDSLDWALYDHLMDFLADRGVDNTFADELVELSTALEHQEYITFLEDLKSFVKSQ
notes: prey protein
With B3, in test [3], the “Relative protein level (log2) WT/noDox” value is 2.689 log2.

B4: U4/U6.U5 tri-snRNP-associated protein 2 (protein, UniProt Q53GS9 1-565, looked up)
Ubiquitin carboxyl-terminal …: MSGRSKRESRGSTRGKRESESRGSSGRVKRERDREREPEAASSRGSPVRVKREFEPASAREAPASVVPFVRVKREREVDEDSEPEREVRAKNGRVDSEDRRSRHCPYLDTINRSVLDFDFEKLCSISLSHINAYACLVCGKYFQGRGLKSHAYIHSVQFSHHVFLNLHTLKFYCLPDNYEIIDSSLEDITYVLKPTFTKQQIANLDKQAKLSRAYDGTTYLPGIVGLNNIKANDYANAVLQALSNVPPLRNYFLEEDNYKNIKRPPGDIMFLLVQRFGELMRKLWNPRNFKAHVSPHEMLQAVVLCSKKTFQITKQGDGVDFLSWFLNALHSALGGTKKKKKTIVTDVFQGSMRIFTKKLPHPDLPAEEKEQLLHNDEYQETMVESTFMYLTLDLPTAPLYKDEKEQLIIPQVPLFNILAKFNGITEKEYKTYKENFLKRFQLTKLPPYLIFCIKRFTKNNFFVEKNPTIVNFPITNVDLREYLSEEVQAVHKNTTYDLIANIVHDGKPSEGSYRIHVLHHGTGKWYELQDLQVTDILPQMITLSEAYIQIWKRRDNDETNQQGA
notes: prey protein
On to B4, for which the “Relative protein level (log2) WT/noDox” value in test [3] is listed as 1.44 log2.

B5: Isocitrate dehydrogenase [NAD] subunit gamma, mitochondrial (protein, UniProt P51553 40-393, looked up)
Isocitrate dehydrogenase …: FSEQTIPPSAKYGGRHTVTMIPGDGIGPELMLHVKSVFRHACVPVDFEEVHVSSNADEEDIRNAIMAIRRNRVALKGNIETNHNLPPSHKSRNNILRTSLDLYANVIHCKSLPGVVTRHKDIDILIVRENTEGEYSSLEHESVAGVVESLKIITKAKSLRIAEYAFKLAQESGRKKVTAVHKANIMKLGDGLFLQCCREVAARYPQITFENMIVDNTTMQLVSRPQQFDVMVMPNLYGNIVNNVCAGLVGGPGLVAGANYGHVYAVFETATRNTGKSIANKNIANPTATLLASCMMLDHLKLHSYATSIRKAVLASMDNENMHTPDIGGQGTTSEAIQDVIRHIRVINGRAVEA
notes: prey protein
As for B5, the “Relative protein level (log2) WT/noDox” value in test [3] stood at 1.726 log2.
